Assay results reported in doi:10.1101/772699 (bioRxiv, 2019).

B1: K-domain of SEP3 (SEP3^75-178) (domain or fragment, A. thaliana, UniProt O22456-1 75-178, looked up)
chain: YGAPEPNVPSREALAVELSSQQEYLKLKERYDALQRTQRNLLGEDLGPLSTKELESLERQLDSSLKQIRALRTQFMLDQLNDLQSKERMLTETNKTLRLRLADG

Columns and labels:
[1] = biological target: SAP54 (purified, secreted part) (Aster Yellows-Witches' Broom phytoplasma (Candidatus Phytoplasma asteris strain AY-WB)); experiment: dynamic light scattering
dynamic light scattering = biological target: the molecule itself; experiment: dynamic light scattering

Row | Molecule | stoichiometry N [1] | stoichiometry N (dynamic light scattering)
1 | SAP54 (purified, secreted part) (natural protein) | 2 | 
2 | B1 |  | 4
